The supplement of paper PMC9112550, “Optimization of the antimicrobial peptide Bac7 by deep mutational scanning” (BMC Biology, 2022)

Tested on: Escherichia coli TOP10
Assay: shrunken log2 fold change of peptide-encoding DNA abundance (4.5 h post-induction vs induction); higher = less antimicrobial activity (less host growth inhibition)
Conditions: time post-induction: 4.5 h; library: site-saturation at positions 5, 18, 19, 20
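Also: peptides expressed intracellularly from a pBAD plasmid library in pooled LB shake-flask culture, induced with 0.3% L-arabinose, DNA abundance read by NGS, three biological replicates, DESeq2 with apeglm shrinkage.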

Row | Sequence | shrunken log2 fold change
1 | RRIRIRPPRLPRPRPRPKTEPRP | -0.413
2 | RRIRNRPPRLPRPRPRPDMEPRP | -0.0836
3 | RRIRSRPPRLPRPRPRPRTDPRP | 0.0755
4 | RRIRPRPPRLPRPRPRPRAYPRP | -0.13
5 | RRIRIRPPRLPRPRPRPTTCPRP | -0.447
6 | RRIRVRPPRLPRPRPRPGVNPRP | 0.101
7 | RRIRKRPPRLPRPRPRPMHRPRP | 0.0595
8 | RRIRLRPPRLPRPRPRPNVRPRP | -0.00281
9 | RRIRIRPPRLPRPRPRPPAHPRP | 0.139
10 | RRIRVRPPRLPRPRPRPAVWPRP | 0.458
11 | RRIRRRPPRLPRPRPRPIICPRP | 0.0738
12 | RRIRSRPPRLPRPRPRPPLNPRP | 0.0261
13 | RRIRKRPPRLPRPRPRPWYKPRP | -0.0194
14 | RRIRMRPPRLPRPRPRPCHIPRP | -0.0247
15 | RRIRYRPPRLPRPRPRPNNHPRP | -1.1
16 | RRIRNRPPRLPRPRPRPGEVPRP | -0.121
17 | RRIRDRPPRLPRPRPRPDYPPRP | 0.00388
18 | RRIRHRPPRLPRPRPRPEKWPRP | -0.0863
19 | RRIRFRPPRLPRPRPRPHGKPRP | -0.0579
20 | RRIRARPPRLPRPRPRPVIRPRP | -0.055
21 | RRIRPRPPRLPRPRPRPSFSPRP | -0.578
22 | RRIRGRPPRLPRPRPRPPVCPRP | 0.213
23 | RRIRVRPPRLPRPRPRPPGFPRP | 0.842
24 | RRIRMRPPRLPRPRPRPLYIPRP | -1.01
25 | RRIRERPPRLPRPRPRPKVRPRP | -0.0607

Row | Sequence | shrunken log2 fold change
26 | RRIRYRPPRLPRPRPRPPMCPRP | -0.0507
27 | RRIRHRPPRLPRPRPRPIVGPRP | -0.476
28 | RRIRGRPPRLPRPRPRPSGHPRP | -0.202
29 | RRIRFRPPRLPRPRPRPRRKPRP | 0.246
30 | RRIRSRPPRLPRPRPRPQWAPRP | 0.0253
31 | RRIRWRPPRLPRPRPRPDNCPRP | -0.015
32 | RRIRARPPRLPRPRPRPMEWPRP | 0.259
33 | RRIRMRPPRLPRPRPRPHEFPRP | 0.224
34 | RRIRPRPPRLPRPRPRPFRTPRP | -0.362
35 | RRIRFRPPRLPRPRPRPKWVPRP | -0.193
36 | RRIRPRPPRLPRPRPRPTKQPRP | 0.169
37 | RRIRLRPPRLPRPRPRPMGVPRP | -0.0231
38 | RRIRFRPPRLPRPRPRPIMRPRP | 0.0101
39 | RRIRWRPPRLPRPRPRPVKLPRP | -0.0719
40 | RRIRNRPPRLPRPRPRPTSNPRP | -0.615
41 | RRIRSRPPRLPRPRPRPDKDPRP | -0.102
42 | RRIRQRPPRLPRPRPRPEMQPRP | 0.0355
43 | RRIRVRPPRLPRPRPRPLSQPRP | -0.032
44 | RRIRHRPPRLPRPRPRPEMIPRP | 0.0986
45 | RRIRRRPPRLPRPRPRPFLVPRP | -0.566
46 | RRIRRRPPRLPRPRPRPRVYPRP | 0.335
47 | RRIRARPPRLPRPRPRPFSVPRP | -0.107
48 | RRIRSRPPRLPRPRPRPCFNPRP | -0.828
49 | RRIRQRPPRLPRPRPRPHYHPRP | -0.127
50 | RRIRKRPPRLPRPRPRPGGTPRP | 0.504

Row | Sequence | shrunken log2 fold change
51 | RRIRYRPPRLPRPRPRPRNCPRP | -0.234
52 | RRIRQRPPRLPRPRPRPQGYPRP | -0.19
53 | RRIRNRPPRLPRPRPRPELYPRP | 0.23
54 | RRIRNRPPRLPRPRPRPSGYPRP | 0.00359
55 | RRIRTRPPRLPRPRPRPPRYPRP | 0.152
56 | RRIRTRPPRLPRPRPRPYEGPRP | -0.0536
57 | RRIRWRPPRLPRPRPRPRMIPRP | 0.693
58 | RRIRNRPPRLPRPRPRPIICPRP | -0.0922
59 | RRIRGRPPRLPRPRPRPRNQPRP | 0.402
60 | RRIRSRPPRLPRPRPRPRPTPRP | 0.391
61 | RRIRCRPPRLPRPRPRPHYIPRP | -0.0818
62 | RRIRYRPPRLPRPRPRPYFYPRP | -0.49
63 | RRIRYRPPRLPRPRPRPWFSPRP | -0.346
64 | RRIRKRPPRLPRPRPRPVDFPRP | 0.103
65 | RRIRNRPPRLPRPRPRPWRFPRP | -0.0929
66 | RRIRSRPPRLPRPRPRPIQYPRP | -0.383
67 | RRIRKRPPRLPRPRPRPMQCPRP | -0.0161
68 | RRIRWRPPRLPRPRPRPKNQPRP | 0.123
69 | RRIRIRPPRLPRPRPRPIVSPRP | -0.102
70 | RRIRGRPPRLPRPRPRPEKIPRP | 0.672
71 | RRIRIRPPRLPRPRPRPERRPRP | 0.264
72 | RRIRLRPPRLPRPRPRPTEPPRP | 0.0962
73 | RRIRWRPPRLPRPRPRPKQVPRP | 0.285
74 | RRIRARPPRLPRPRPRPTLDPRP | 0.777
75 | RRIRTRPPRLPRPRPRPWFIPRP | -0.64

Row | Sequence | shrunken log2 fold change
76 | RRIRGRPPRLPRPRPRPKARPRP | 0.208
77 | RRIRYRPPRLPRPRPRPGLGPRP | -0.0488
78 | RRIRNRPPRLPRPRPRPLFCPRP | -0.495
79 | RRIRFRPPRLPRPRPRPSVCPRP | -0.16
80 | RRIRKRPPRLPRPRPRPTVKPRP | 0.19
81 | RRIRRRPPRLPRPRPRPKFMPRP | 0.122
82 | RRIRFRPPRLPRPRPRPIDMPRP | -0.727
83 | RRIRVRPPRLPRPRPRPHMPPRP | -0.725
84 | RRIRDRPPRLPRPRPRPDAMPRP | -0.107
85 | RRIRKRPPRLPRPRPRPNGAPRP | 0.168
86 | RRIRTRPPRLPRPRPRPWKHPRP | -0.529
87 | RRIRCRPPRLPRPRPRPTVRPRP | 0.128
88 | RRIRQRPPRLPRPRPRPVKPPRP | -0.00215
89 | RRIRGRPPRLPRPRPRPDRYPRP | 0.152
90 | RRIRLRPPRLPRPRPRPERCPRP | 0.00413
91 | RRIRERPPRLPRPRPRPDHMPRP | -0.0199
92 | RRIRKRPPRLPRPRPRPFDGPRP | 0.23
93 | RRIRYRPPRLPRPRPRPGDLPRP | 0.0641
94 | RRIRYRPPRLPRPRPRPAFIPRP | -0.24
95 | RRIRERPPRLPRPRPRPLTEPRP | -0.298
96 | RRIRNRPPRLPRPRPRPLQTPRP | -0.0644
97 | RRIRQRPPRLPRPRPRPCACPRP | 0.0128
98 | RRIRYRPPRLPRPRPRPYPIPRP | -0.376
99 | RRIRRRPPRLPRPRPRPYCKPRP | -0.24
100 | RRIRQRPPRLPRPRPRPENSPRP | -0.0723

Row | Sequence | shrunken log2 fold change
101 | RRIRDRPPRLPRPRPRPDMWPRP | 0.0213
102 | RRIRDRPPRLPRPRPRPKFGPRP | 0.0019
103 | RRIRSRPPRLPRPRPRPLAMPRP | 0.087
104 | RRIRLRPPRLPRPRPRPGKKPRP | 0.0971
105 | RRIRERPPRLPRPRPRPIHMPRP | -0.0835
106 | RRIRGRPPRLPRPRPRPFIIPRP | 0.102
107 | RRIRDRPPRLPRPRPRPGCNPRP | 0.0955
108 | RRIRARPPRLPRPRPRPMYFPRP | -0.154
109 | RRIRVRPPRLPRPRPRPEEFPRP | -0.034
110 | RRIRGRPPRLPRPRPRPYKCPRP | -0.00955
111 | RRIRFRPPRLPRPRPRPYKKPRP | -0.415
112 | RRIRKRPPRLPRPRPRPQAIPRP | -0.0244
113 | RRIRPRPPRLPRPRPRPDYLPRP | -0.259
114 | RRIRYRPPRLPRPRPRPHHGPRP | 0.0431
115 | RRIRPRPPRLPRPRPRPQTQPRP | 0.115
116 | RRIRMRPPRLPRPRPRPYIMPRP | -0.12
117 | RRIRNRPPRLPRPRPRPQEQPRP | 0.042
118 | RRIRYRPPRLPRPRPRPAGHPRP | -0.0387
119 | RRIRWRPPRLPRPRPRPSYTPRP | -0.656
120 | RRIRARPPRLPRPRPRPHWMPRP | 0.0379
121 | RRIRSRPPRLPRPRPRPPWVPRP | 0.433
122 | RRIRCRPPRLPRPRPRPDWMPRP | -0.11
123 | RRIRPRPPRLPRPRPRPTHCPRP | 0.1
124 | RRIRQRPPRLPRPRPRPCKNPRP | -0.409
125 | RRIRRRPPRLPRPRPRPTIFPRP | 0.149

Row | Sequence | shrunken log2 fold change
126 | RRIRSRPPRLPRPRPRPCMIPRP | -0.389
127 | RRIRIRPPRLPRPRPRPIHLPRP | -0.352
128 | RRIRERPPRLPRPRPRPDTFPRP | -0.00141
129 | RRIRLRPPRLPRPRPRPWEPPRP | 0.0843
130 | RRIRIRPPRLPRPRPRPERQPRP | 0.0212
131 | RRIRGRPPRLPRPRPRPCQYPRP | 0.0685
132 | RRIRMRPPRLPRPRPRPGNRPRP | 0.0934
133 | RRIRTRPPRLPRPRPRPFERPRP | -0.0347
134 | RRIRMRPPRLPRPRPRPRELPRP | 1.54
135 | RRIRDRPPRLPRPRPRPETIPRP | 0.17
136 | RRIRCRPPRLPRPRPRPQYNPRP | -1.36
137 | RRIRLRPPRLPRPRPRPNCNPRP | -0.535
138 | RRIRQRPPRLPRPRPRPMVLPRP | 0.0309
139 | RRIRRRPPRLPRPRPRPDYGPRP | -0.28
140 | RRIRQRPPRLPRPRPRPQRHPRP | 0.0218
141 | RRIRGRPPRLPRPRPRPKVCPRP | 0.232
142 | RRIRGRPPRLPRPRPRPDYSPRP | -0.0453
143 | RRIRYRPPRLPRPRPRPGLSPRP | -0.439
144 | RRIRHRPPRLPRPRPRPYVNPRP | -0.0772
145 | RRIRMRPPRLPRPRPRPCNMPRP | -0.126
146 | RRIRERPPRLPRPRPRPITKPRP | -0.107
147 | RRIRPRPPRLPRPRPRPCTMPRP | -0.191
148 | RRIRWRPPRLPRPRPRPCACPRP | 0.0874
149 | RRIRHRPPRLPRPRPRPIPPPRP | -0.0356
150 | RRIRLRPPRLPRPRPRPKDTPRP | 0.0949
